{
  "source": "patent US20210356467",
  "key": {"[1]": {"biological_target": "IKZF1 (Q13422) expressed in-frame upstream to the N-CAT fragment (UniProt Q13422)", "sequence (Q13422 other isoform, or with tags, fused parts or gaps)": "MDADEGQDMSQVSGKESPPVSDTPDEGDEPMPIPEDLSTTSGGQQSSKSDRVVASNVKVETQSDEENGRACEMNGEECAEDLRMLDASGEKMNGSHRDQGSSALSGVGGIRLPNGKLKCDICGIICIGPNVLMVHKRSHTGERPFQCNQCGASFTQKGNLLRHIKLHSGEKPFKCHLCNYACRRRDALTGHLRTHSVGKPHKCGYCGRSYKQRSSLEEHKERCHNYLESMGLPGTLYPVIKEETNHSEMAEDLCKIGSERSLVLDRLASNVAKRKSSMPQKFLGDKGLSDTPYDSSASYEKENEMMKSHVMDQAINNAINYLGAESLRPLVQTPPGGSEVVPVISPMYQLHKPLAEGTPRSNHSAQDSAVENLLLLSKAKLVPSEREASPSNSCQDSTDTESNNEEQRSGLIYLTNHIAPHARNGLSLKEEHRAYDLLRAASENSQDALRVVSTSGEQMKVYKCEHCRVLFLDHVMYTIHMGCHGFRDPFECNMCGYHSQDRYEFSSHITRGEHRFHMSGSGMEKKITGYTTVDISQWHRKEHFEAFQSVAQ"}, "[2]": {"biological_target": "CK1a (P48729) expressed in-frame upstream to the N-CAT fragment (UniProt P48729)", "sequence (P48729 other isoform, or with tags, fused parts or gaps)": "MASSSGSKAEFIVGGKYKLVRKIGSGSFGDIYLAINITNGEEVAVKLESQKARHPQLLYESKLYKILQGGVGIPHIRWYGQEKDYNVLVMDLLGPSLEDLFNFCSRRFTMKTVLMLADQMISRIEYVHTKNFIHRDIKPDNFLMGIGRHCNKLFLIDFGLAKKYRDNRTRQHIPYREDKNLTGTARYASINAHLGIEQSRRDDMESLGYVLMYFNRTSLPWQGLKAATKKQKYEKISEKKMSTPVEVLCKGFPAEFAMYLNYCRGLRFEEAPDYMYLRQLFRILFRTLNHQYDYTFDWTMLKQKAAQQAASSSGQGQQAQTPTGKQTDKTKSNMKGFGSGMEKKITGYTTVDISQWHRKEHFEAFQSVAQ"}, "[3]": {"biological_target": "GSPT1 (P15170) expressed in-frame upstream to the N-CAT fragment (UniProt P15170)", "sequence (P15170 other isoform, or with tags, fused parts or gaps)": "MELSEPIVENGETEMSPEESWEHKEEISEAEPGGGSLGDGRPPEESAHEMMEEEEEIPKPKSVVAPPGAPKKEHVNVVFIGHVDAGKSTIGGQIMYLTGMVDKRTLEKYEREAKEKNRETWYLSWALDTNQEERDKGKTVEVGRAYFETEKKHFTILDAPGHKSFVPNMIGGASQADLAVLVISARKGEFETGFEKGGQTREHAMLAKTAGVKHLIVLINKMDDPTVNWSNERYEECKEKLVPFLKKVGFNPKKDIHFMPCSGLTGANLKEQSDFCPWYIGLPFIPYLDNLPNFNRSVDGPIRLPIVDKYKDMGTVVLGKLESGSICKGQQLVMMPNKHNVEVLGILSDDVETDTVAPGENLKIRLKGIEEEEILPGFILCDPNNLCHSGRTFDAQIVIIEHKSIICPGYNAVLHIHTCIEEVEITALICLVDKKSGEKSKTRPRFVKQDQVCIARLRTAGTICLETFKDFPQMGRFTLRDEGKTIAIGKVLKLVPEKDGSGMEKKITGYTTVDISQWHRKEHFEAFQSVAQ"}},
  "data": [
    {"substance": "Cereblon-E2 (Ubc4) fusion", "values": [
      {"measurement": "dose response of E. coli growth (OD600) to TLD and LLD, split-CAT selection", "setting": "[1]", "value": "the selection system maintains this well-known optimum characteristic response to TLD and LLD"},
      {"measurement": "growth of E. coli (OD600) under chloramphenicol, split-CAT ubiquitylation selection, with Lenalidomide (LLD)", "setting": "[1]", "value": "Thalidomide and Lenalidomide (TLD/LLD) significantly promoted the growth of E. coli that express IKZF1"},
      {"measurement": "growth of E. coli (OD600) under chloramphenicol, split-CAT ubiquitylation selection, with Thalidomide (TLD)", "setting": "[1]", "value": "Thalidomide and Lenalidomide (TLD/LLD) significantly promoted the growth of E. coli that express IKZF1"},
      {"measurement": "growth of E. coli (OD600) under chloramphenicol, split-CAT ubiquitylation selection, with Lenalidomide (LLD)", "setting": "[2]", "value": "Thalidomide and Lenalidomide (TLD/LLD) significantly promoted the growth of E. coli that express CK1a"},
      {"measurement": "growth of E. coli (OD600) under chloramphenicol, split-CAT ubiquitylation selection, with Thalidomide (TLD)", "setting": "[2]", "value": "Thalidomide and Lenalidomide (TLD/LLD) significantly promoted the growth of E. coli that express CK1a"},
      {"measurement": "growth of E. coli (OD600) under chloramphenicol, split-CAT ubiquitylation selection, with CC-885", "setting": "[3]", "value": "CC-885 significantly promoted the growth of E. coli that express GSPT1"}
    ]}
  ]
}
